In article PMC5859912 (ACS Chemical Biology, 2018):

T1: PCY1:S562A (Saponaria vaccaria, UniProt R4P353 1-724, S562A)
T1 sequence: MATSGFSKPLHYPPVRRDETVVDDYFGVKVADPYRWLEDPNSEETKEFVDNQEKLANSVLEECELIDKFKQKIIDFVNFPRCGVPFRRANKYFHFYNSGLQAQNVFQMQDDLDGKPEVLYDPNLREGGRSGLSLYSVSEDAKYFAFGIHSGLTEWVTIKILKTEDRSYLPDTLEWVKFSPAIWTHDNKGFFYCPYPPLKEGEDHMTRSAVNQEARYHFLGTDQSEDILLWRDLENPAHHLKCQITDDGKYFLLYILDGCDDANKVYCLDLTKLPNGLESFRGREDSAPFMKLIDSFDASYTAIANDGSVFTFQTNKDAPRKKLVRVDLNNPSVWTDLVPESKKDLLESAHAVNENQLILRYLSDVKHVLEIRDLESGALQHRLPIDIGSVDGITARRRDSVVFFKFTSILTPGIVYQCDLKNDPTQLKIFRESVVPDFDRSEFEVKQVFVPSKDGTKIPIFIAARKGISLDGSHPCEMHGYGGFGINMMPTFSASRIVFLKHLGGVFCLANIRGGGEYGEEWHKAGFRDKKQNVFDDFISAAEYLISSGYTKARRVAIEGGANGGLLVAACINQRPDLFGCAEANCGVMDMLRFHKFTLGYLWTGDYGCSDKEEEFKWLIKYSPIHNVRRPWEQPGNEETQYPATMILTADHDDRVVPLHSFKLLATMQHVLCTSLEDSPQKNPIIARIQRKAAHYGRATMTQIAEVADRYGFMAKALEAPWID


Key:
[1] = molecular target: PCY1:S562A (Saponaria vaccaria) (UniProt R4P353); experiment: ITC
PCY1 = format: biochemical, Saponaria vaccaria; details: LC/MS (ion count); 30 °C; pH 8.5
PCY1:S562A = molecular target: T1, PCY1:S562A; experiment: ITC

Molecule | Kd [1] | further results
presegetalin F1 (peptide) | 136 nM | 
presegetalin D1 (peptide) | 250 nM | 
presegetalin A1 (peptide) | 173 nM | 
presegetalin B1 (peptide) | 238 nM | 
FSASYSSKP FQA |  | kcat/Km (PCY1): 1200 s^–1 M^–1
DNASAPV |  | Kd (PCY1:S562A): 9580 ± 580 nM
